Substrate: N[C@H]1CCSC1=O
Test: purified protein
Type: biochemical, Homo sapiens
Settings: Dulbecco's PBS with 0.32 mM DTNB, 37 °C, partially purified native enzyme

B1: human liver BPHL (purified human liver HCTLase) (Homo sapiens) (protein)
chain: SVTSAKVAVNGVQLHYQQTGEGDHAVLLLPGMLGSGETDFGPQLKNLNKKLFTVVAWDPRGYGHSRPPDRDFPADFFERDAKDAVDLMKALKFKKVSLLGWSDGGITALIAAAKYPSYIHKMVIWGANAYVTDEDSMIYEGIRDVSKWSERTRKPLEALYGYDYFARTCEKWVDGIRQFKHLPDGNICRHLLPRVQCPALIVHGEKDPLVPRFHADFIHKHVKGSRLHLMPEGKHNLHLRFADEFNKLAEDFLQ
notes: native, partially purified from pooled human liver (five donors); about 30 kDa by gel filtration; identified by MS, with ACAA1 and hydroxyacyl-CoA dehydrogenase bands co-purifying
B1 was tested, and the Km was 3.92 mM.

Reference: publication PMC4198189, “Human Valacyclovir Hydrolase/Biphenyl Hydrolase-Like Protein Is a Highly Efficient Homocysteine Thiolactonase” (PLoS ONE, 2014)
